From the Human Domainome abundance scans (Beltran et al. 2025)
± gives the uncertainty stated by the source.

B1: Dystrobrevin alpha, residues 235 to 294; numbered along this chain, Q9Y4J8 (parent)
chain: ENVFHPVECSYCHSESMMGFRYRCQQCHNYQLCQDCFWRGHAGGSHSNQHQMKEYTSWKS
B2: Myocardin, residues 363 to 406; numbered along this chain, Q8IZQ8 (parent)
chain: KPGPLPPNLDDLKVSELRQQLRIRGLPVSGTKTALMDRLRPFQD

Variants of: B1
Test: abundance fitness (aPCA) (normalised: wild type 0, dead -1); higher = more abundant; growth selection in yeast, the domain comes from the species named
Details: Homo sapiens

Variant	abundance fitness
H50N	-0.493 ± 0.062
H50P	-0.463 ± 0.052
H50Q	-0.509 ± 0.058
H50V	-0.686 ± 0.049
H50W	-0.624 ± 0.07
H50Y	-0.527 ± 0.076
Q51A	-0.066 ± 0.098
Q51C	-0.148 ± 0.082
Q51D	0.101 ± 0.06
Q51F	-0.536 ± 0.18
Q51G	-0.234 ± 0.074
Q51H	-0.319 ± 0.13
Q51I	0.009 ± 0.078
Q51K	0.046 ± 0.068
Q51L	-0.153 ± 0.062
Q51M	-0.334 ± 0.11
Q51N	-0.095 ± 0.086
Q51P	-0.091 ± 0.086
Q51S	0.062 ± 0.06
Q51T	0.042 ± 0.059
Q51V	-0.117 ± 0.062
Q51W	-0.517 ± 0.095
Q51Y	0.077 ± 0.13

Variant	abundance fitness
M52C	-0.194 ± 0.12
M52D	-0.471 ± 0.12
M52E	-0.567 ± 0.15
M52F	-0.005 ± 0.096
M52G	-0.554 ± 0.071
M52H	-0.87 ± 0.23
M52I	-0.3 ± 0.1
M52K	-0.62 ± 0.12
M52L	-0.248 ± 0.072
M52N	-0.764 ± 0.27
M52P	-0.478 ± 0.094
M52Q	-0.294 ± 0.14
M52R	-0.792 ± 0.078
M52S	-0.628 ± 0.09
M52V	-0.025 ± 0.088
M52W	-0.449 ± 0.099
M52Y	-0.18 ± 0.11
K53A	-0.135 ± 0.083
K53C	-0.137 ± 0.068
K53D	-0.16 ± 0.12
K53E	-0.029 ± 0.078
K53F	-0.313 ± 0.097
K53G	-0.248 ± 0.052

Variant	abundance fitness
K53H	-0.167 ± 0.21
K53I	-0.111 ± 0.1
K53L	-0.108 ± 0.061
K53M	-0.108 ± 0.092
K53P	-0.592 ± 0.13
K53Q	0.026 ± 0.089
K53R	-0.111 ± 0.053
K53S	-0.11 ± 0.07
K53T	-0.154 ± 0.085
K53V	0.137 ± 0.065
K53W	-0.459 ± 0.089
K53Y	-0.262 ± 0.11
E54G	-0.29 ± 0.5
E54T	0.312 ± 0.21
Y55A	-0.064 ± 0.079
Y55C	0.209 ± 0.085
Y55D	0.243 ± 0.093
Y55E	0.117 ± 0.1
Y55F	-0.155 ± 0.098
Y55H	-0.134 ± 0.27
Y55I	-0.066 ± 0.1
Y55K	-0.609 ± 0.23
Y55L	0.06 ± 0.075

Variant	abundance fitness
Y55N	-0.144 ± 0.19
Y55P	-0.078 ± 0.12
Y55Q	-0.071 ± 0.086
Y55R	-0.11 ± 0.066
Y55S	0.245 ± 0.058
Y55T	0.104 ± 0.095
Y55V	0.238 ± 0.068
Y55W	0.06 ± 0.04
T56A	0.017 ± 0.061
T56C	0.076 ± 0.091
T56D	0.188 ± 0.076
T56E	0.307 ± 0.12
T56F	-0.642 ± 0.18
T56G	0.024 ± 0.057
T56H	-0.025 ± 0.1
T56I	-0.218 ± 0.097
T56K	0.066 ± 0.1
T56L	-0.462 ± 0.064
T56M	-0.151 ± 0.12
T56N	-0.045 ± 0.19
T56P	0.126 ± 0.059
T56Q	0.044 ± 0.09
T56R	-0.061 ± 0.044

Variant	abundance fitness
T56S	0.104 ± 0.057
T56V	-0.137 ± 0.06
T56W	-0.605 ± 0.093
T56Y	-0.509 ± 0.1
S57A	0.085 ± 0.064
S57C	0.074 ± 0.065
S57D	0.071 ± 0.12
S57E	0.058 ± 0.072
S57F	-0.391 ± 0.085
S57G	-0.044 ± 0.08
S57H	0.124 ± 0.08
S57I	-0.11 ± 0.11
S57K	-0.019 ± 0.069
S57L	-0.165 ± 0.056
S57M	0.036 ± 0.081
S57N	-0.291 ± 0.12
S57P	0.171 ± 0.077
S57Q	-0.059 ± 0.089
S57R	-0.152 ± 0.056
S57T	0.008 ± 0.064
S57V	0.005 ± 0.068
S57W	-0.192 ± 0.089
S57Y	-0.395 ± 0.13

Variant	abundance fitness
W58A	0.258 ± 0.05
W58C	0.003 ± 0.07
W58D	0.284 ± 0.07
W58E	0.297 ± 0.097
W58F	-0.021 ± 0.083
W58G	0.192 ± 0.044
W58H	0.105 ± 0.15
W58K	0.195 ± 0.099
W58L	0.019 ± 0.068
W58M	0.251 ± 0.068
W58N	0.232 ± 0.12
W58Q	-0.127 ± 0.15
W58R	0.077 ± 0.051
W58S	0.057 ± 0.06
W58T	0.258 ± 0.075
W58V	0.224 ± 0.057
W58Y	0.142 ± 0.26
K59A	0.082 ± 0.079
K59C	-0.001 ± 0.086
K59D	0.356 ± 0.21
K59E	-0.127 ± 0.15
K59F	-0.142 ± 0.1
K59G	0.229 ± 0.08

Variant	abundance fitness
K59H	0.074 ± 0.1
K59I	-0.392 ± 0.38
K59L	-0.013 ± 0.085
K59N	0.017 ± 0.3
K59P	-0.034 ± 0.32
K59Q	0.126 ± 0.12
K59T	0.049 ± 0.083
K59V	-0.105 ± 0.11
K59Y	-0.099 ± 0.19
S60A	-0.446 ± 0.24
S60C	-0.276 ± 0.14
S60D	0.335 ± 0.37
S60F	0.02 ± 0.12
S60G	0.064 ± 0.48
S60H	0.112 ± 0.26
S60I	-0.519 ± 0.14
S60L	-0.196 ± 0.12
S60N	-0.216 ± 0.34
S60P	-0.065 ± 0.092
S60Q	0.216 ± 0.15
S60R	0.134 ± 0.15
S60V	0.034 ± 0.18
S60Y	-0.207 ± 0.14

Variants of: B2
Test: as above
Details: Homo sapiens

Variant	abundance fitness
P6M	-0.135 ± 0.15
M36R	-0.216 ± 0.066
Q43K	-0.503 ± 0.29
T33M	-0.402 ± 0.14
G3R	0.016 ± 0.063
L5H	-0.311 ± 0.33
I23E	0.043 ± 0.12
L9S	-0.605 ± 0.14
N8P	-0.541 ± 0.099
M36K	-0.083 ± 0.2
T33V	0.016 ± 0.063
V14R	-1.02 ± 0.11
P6V	-0.133 ± 0.065
P41G	-0.084 ± 0.055
G25L	-1.12 ± 0.35
R38M	-0.445 ± 0.11
L12E	-0.369 ± 0.088
P7T	0.018 ± 0.15
S15V	-0.243 ± 0.085
R40P	-0.346 ± 0.1
Q43N	-0.213 ± 0.18
S29F	-0.245 ± 0.32
K1M	-0.835 ± 0.25
V14Q	-0.994 ± 0.26
Q43W	-0.106 ± 0.074

Variant	abundance fitness
R24A	-0.695 ± 0.11
L17C	-1.31 ± 0.36
Q19T	-0.439 ± 0.17
P41H	-0.14 ± 0.11
P4M	0.392 ± 0.14
S29Q	0.006 ± 0.16
Q19A	-0.194 ± 0.073
P41M	-0.231 ± 0.3
D10V	0.076 ± 0.068
P7H	0.188 ± 0.091
S15A	0.113 ± 0.068
G25V	-1.38 ± 0.3
L12A	-0.425 ± 0.061
M36T	-0.27 ± 0.094
Q19W	-0.717 ± 0.18
P41W	-0.161 ± 0.09
E16P	-0.939 ± 0.2
G3L	-0.025 ± 0.08
D10Q	-0.163 ± 0.14
V14A	-0.465 ± 0.14
R18I	-0.133 ± 0.47
L35N	-0.613 ± 0.17
R38V	-0.735 ± 0.082
T31C	-0.052 ± 0.24
E16S	-0.47 ± 0.072

Variant	abundance fitness
L9T	-0.731 ± 0.12
T33F	-0.144 ± 0.16
Q20A	0.004 ± 0.059
L35M	0.064 ± 0.093
F42R	-0.12 ± 0.07
D10F	-0.582 ± 0.36
E16M	-0.615 ± 0.078
L35Q	-0.226 ± 0.1
P27H	-0.149 ± 0.19
G25C	-0.342 ± 0.12
R40S	-0.107 ± 0.09
V14H	-0.396 ± 0.19
D11G	-0.074 ± 0.055
D44E	-0.031 ± 0.19
D44K	0.195 ± 0.14
F42H	0.139 ± 0.12
P27Y	-0.891 ± 0.13
V28E	0.082 ± 0.068
D44S	-0.313 ± 0.15
T31V	-0.189 ± 0.072
P41Y	-0.455 ± 0.13
P27G	-0.41 ± 0.068
K32L	-0.784 ± 0.074
I23V	-0.092 ± 0.061
V14C	-0.603 ± 0.19

Variant	abundance fitness
G25Q	-0.325 ± 0.088
R22A	-0.138 ± 0.074
D10T	-0.178 ± 0.29
T33S	-0.071 ± 0.095
A34G	-0.556 ± 0.075
D11L	0.009 ± 0.072
P2V	0.39 ± 0.11
I23C	-0.315 ± 0.47
Q20S	-0.711 ± 0.15
R18G	-0.888 ± 0.12
E16T	-0.515 ± 0.12
G3T	0.099 ± 0.099
T31M	-0.62 ± 0.22
T33P	-0.17 ± 0.087
K1D	-0.268 ± 0.098
L12S	-0.274 ± 0.12
M36D	-0.505 ± 0.19
R22L	-0.374 ± 0.15
P2I	0.466 ± 0.087
P41T	-0.351 ± 0.12
L17D	-0.86 ± 0.42
L26T	-0.805 ± 0.15
L35V	-0.459 ± 0.081
V28D	0.294 ± 0.18
K1N	0.11 ± 0.17

Variant	abundance fitness
V28H	-0.264 ± 0.14
D10G	0.311 ± 0.058
G3P	-0.265 ± 0.13
L17H	-0.878 ± 0.31
T31N	0.352 ± 0.11
K1G	-0.47 ± 0.073
G25E	-0.274 ± 0.1
P41I	-0.001 ± 0.21
I23S	0.033 ± 0.067
D11N	-0.004 ± 0.12
V28G	-0.168 ± 0.062
I23G	-0.24 ± 0.06
R40V	-0.376 ± 0.085
P4H	0.093 ± 0.076
L39P	-0.373 ± 0.084
D11A	0.085 ± 0.063
G25W	-1.15 ± 0.25
D37H	-0.385 ± 0.15
L9N	-0.871 ± 0.3
V14T	-0.222 ± 0.091
V28A	-0.002 ± 0.063
K32A	-0.449 ± 0.068
P27I	-0.374 ± 0.14
L12Q	-0.506 ± 0.34
D44W	-0.218 ± 0.34

Variant	abundance fitness
K1S	-0.672 ± 0.084
L26E	-0.293 ± 0.084
L39F	-0.755 ± 0.35
I23N	-0.45 ± 0.26
Q19H	-0.412 ± 0.41
L9I	-0.289 ± 0.088
P7A	0.12 ± 0.081
L17V	-0.606 ± 0.084
P4E	0.107 ± 0.069
P41C	-0.151 ± 0.085
S15Y	-0.274 ± 0.13
S29E	0.129 ± 0.074
L39V	-0.594 ± 0.092
D44G	0 ± 0.064
S29T	-0.001 ± 0.087
L26G	-0.586 ± 0.12
F42A	0.067 ± 0.062
G30Y	-0.951 ± 0.14
R38T	-0.316 ± 0.16
N8W	-0.915 ± 0.16
R40N	-0.698 ± 0.15
S15R	-0.22 ± 0.065
D44V	0.038 ± 0.13
L9K	-0.741 ± 0.19
L39Y	-0.505 ± 0.24

Variant	abundance fitness
K1L	-0.666 ± 0.31
A34D	0.137 ± 0.077
P27E	-0.245 ± 0.087
L12T	-0.401 ± 0.1
D10P	-0.552 ± 0.16
K1T	-0.521 ± 0.13
L9P	-0.513 ± 0.12
K32P	-0.583 ± 0.071
S15W	-0.163 ± 0.085
I23L	-0.021 ± 0.099
L12C	-0.499 ± 0.13
T33N	-0.001 ± 0.08
P2R	0.085 ± 0.071
G3Q	0.295 ± 0.099
P7G	0.142 ± 0.057
L5I	0.011 ± 0.18
S15F	-0.22 ± 0.084
T33K	0.016 ± 0.14
A34Q	-0.601 ± 0.14
P27R	-0.344 ± 0.055
V28L	-0.07 ± 0.064
R40L	-0.284 ± 0.072
L35E	-0.293 ± 0.076
